Results as given in US9517265B2, “Methods for the prevention and/or treatment of memory impairment” (The Governing Council of the University of Toronto, priority 2010, dated 2016).
“Also recorded” adds a separate entry of the source.

Key:
α5GABAARs [1] = target: T1, α5GABAARs (Mus musculus, UniProt P22723+Q8BHJ7); assay: Fear conditioning after IL-1β or LPS injection; format: in vivo, mice; conditions: for contextual fear memory, WT mice (in words): IL-1β 1 μg kg^−1 i.p. or LPS 125 μg kg^−1 i.p. 3 h before conditioning, inverse agonist co-administered; for cued fear memory to a conditioned tone stimulus (in words): mouse, in vivo
Procedure: Pavlovian fear-conditioning tasks were used for behavioral analysis^29. LPS (125 μg kg^−1, i.p., with physiological saline as the vehicle control) or IL-1β (1 μg kg^−1, i.p., with 0.1% bovine serum albumin as the vehicle control) was injected into male 3- to 4-month-old WT and Gabra5−/− mice 3 h before conditioning. The intensity of the electric footshock was 0.5 mA. For some mice, the inverse agonist L-655,708 (0.35 or 0.5 mg kg^−1, i.p.) or vehicle control (10% DMSO, i.p.) was injected 30 min before training. The movement of the mouse was monitored. The percentage of time that each mouse spent in a freezing position was determined using FreezeView software (Version 2.26, Actimetrics Inc, Wilmette, Ill., USA).
We have determined that IL-1β-induced impairment of contextual fear memory can be reversed by pharmacological inhibition of α5GABAA receptors by the inverse agonist MRK-016. Fear conditioning was performed 3 h after injection of IL-1β (1 μg kg^−1, i.p.) in both wild-type (WT) and α5GABAA receptor knock out (Gabra5−/−) mice. Mice were trained to associate a context (contextual fear) and a tone (cued fear) with an aversive electric footshock. 24 h after conditioning each mouse was placed in the training context, and contextual fear memory was measured as the percentage of time spent freezing. Cued fear memory was measured 48 h after training as the percentage of time spent freezing to the conditioned auditory tone in a novel context.

[2] = target: T2, GABAA receptor α5-subtype (Homo sapiens, UniProt P18507+P31644); conditions: inverse agonist selective for the α5-subtype; cited from earlier work
T2 sequence (P31644 32-462): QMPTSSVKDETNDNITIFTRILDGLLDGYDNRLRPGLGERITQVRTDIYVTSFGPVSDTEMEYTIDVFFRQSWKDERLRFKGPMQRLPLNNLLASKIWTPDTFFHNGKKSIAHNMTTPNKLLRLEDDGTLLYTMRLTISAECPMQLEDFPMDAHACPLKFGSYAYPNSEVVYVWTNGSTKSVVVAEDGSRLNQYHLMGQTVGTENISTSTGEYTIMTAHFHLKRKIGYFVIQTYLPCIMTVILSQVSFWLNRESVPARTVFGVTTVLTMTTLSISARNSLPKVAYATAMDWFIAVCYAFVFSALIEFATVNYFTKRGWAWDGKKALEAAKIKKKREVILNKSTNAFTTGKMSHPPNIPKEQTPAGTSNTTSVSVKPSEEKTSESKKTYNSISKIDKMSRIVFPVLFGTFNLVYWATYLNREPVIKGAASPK
T2 sequence (P28472 26-473 partner): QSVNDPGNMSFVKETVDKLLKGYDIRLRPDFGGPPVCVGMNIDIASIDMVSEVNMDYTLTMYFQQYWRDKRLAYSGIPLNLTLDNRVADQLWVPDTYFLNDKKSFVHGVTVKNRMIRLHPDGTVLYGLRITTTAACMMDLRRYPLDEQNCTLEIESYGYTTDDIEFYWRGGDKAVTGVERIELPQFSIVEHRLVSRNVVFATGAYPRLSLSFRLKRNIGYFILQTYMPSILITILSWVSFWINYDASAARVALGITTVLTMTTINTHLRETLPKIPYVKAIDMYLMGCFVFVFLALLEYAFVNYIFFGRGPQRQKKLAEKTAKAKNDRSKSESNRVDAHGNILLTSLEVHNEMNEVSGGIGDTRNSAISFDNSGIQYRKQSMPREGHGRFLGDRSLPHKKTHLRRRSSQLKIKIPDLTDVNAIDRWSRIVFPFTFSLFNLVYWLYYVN
T2 sequence (P18507 40-467 limits assumed): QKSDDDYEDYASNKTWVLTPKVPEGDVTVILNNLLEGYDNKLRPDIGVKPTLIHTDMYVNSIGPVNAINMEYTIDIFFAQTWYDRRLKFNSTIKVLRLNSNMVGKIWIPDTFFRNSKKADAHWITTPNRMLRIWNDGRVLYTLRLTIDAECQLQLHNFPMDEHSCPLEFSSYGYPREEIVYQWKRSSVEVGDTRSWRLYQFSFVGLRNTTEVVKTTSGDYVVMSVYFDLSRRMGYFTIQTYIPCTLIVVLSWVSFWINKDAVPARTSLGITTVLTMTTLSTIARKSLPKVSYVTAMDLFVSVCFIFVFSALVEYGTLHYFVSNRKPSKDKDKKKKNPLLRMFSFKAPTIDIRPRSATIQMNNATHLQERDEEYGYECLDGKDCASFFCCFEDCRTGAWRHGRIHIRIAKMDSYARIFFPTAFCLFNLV

α5GABAARs [3] = target: T1, α5GABAARs; assay: Tonic inhibitory current, whole cell voltage-clamp in cultured hippocampal neurons; format: cell-based, mice; parameters: endogenous in cells; host or cells: primary embryonic mouse hippocampal neurons, alone or co-cultured with cortical microglia; conditions: for effect on the tonic current (in words): cultured hippocampal neurons
α1 subunit of GABAARs = assay: Hippocampal slice cell surface biotinylation assay; format: cell-based, C57BL/6 mice; conditions: IL-1β 20 ng ml−1, 40 min, n=5
Procedure: (§1) Cell surface biotinylation assay for α5 and α1 subunits of GABAARs was performed as previously described^25. Hippocampal slices ([…]) from male 10- to 14-week-old C57BL/6 mice were treated with IL-1β (20 ng ml^1, 40 min). Anti-GABAAR α1 and α5 antibodies were obtained from PhosphoSolutions (Aurora, Calif., USA).

α5 subunit of GABAARs = assay: Hippocampal slice cell surface biotinylation assay; format: cell-based, C57BL/6 mice
Procedure: as §1

α5GABAARs [4] = assay: Tonic current in ex vivo hippocampal slices (CA1 pyramidal neurons); format: cell-based; conditions: slices from WT mice treated with IL-1β 1 μg kg^−1 i.p. 2-3 h before sacrifice, n=6
Procedure: Recordings were performed as previously described^29. Hippocampal slices ([…]) were prepared from male 3- to 4-week-old WT mice with a mixed genetic background (C57BL/6/SvEv129). Mice were injected with vehicle (0.1% bovine serum albumin, i.p.) or IL-1β ([…], i.p.) 2-3 hours before sacrifice. To record the tonic GABAergic current, […] GABA was added, and the GABAAR competitive antagonist Bic ([…]) was applied to reveal the tonic current. All cells were recorded at a holding potential of −60 mV.

synaptic GABAARs = assay: Miniature inhibitory postsynaptic currents (mIPSCs) in cultured hippocampal neurons; format: cell-based, mice; conditions: IL-1β 20 ng ml^−1
postsynaptic GABAARs = assay: Whole-cell currents evoked by exogenous GABA (10 μM) in cultured hippocampal neurons; format: cell-based, mice; conditions: IL-1β 20 ng ml−1; GABA 10 μM; n=9

T1 sequence (Q8BHJ7 32-463 limits assumed): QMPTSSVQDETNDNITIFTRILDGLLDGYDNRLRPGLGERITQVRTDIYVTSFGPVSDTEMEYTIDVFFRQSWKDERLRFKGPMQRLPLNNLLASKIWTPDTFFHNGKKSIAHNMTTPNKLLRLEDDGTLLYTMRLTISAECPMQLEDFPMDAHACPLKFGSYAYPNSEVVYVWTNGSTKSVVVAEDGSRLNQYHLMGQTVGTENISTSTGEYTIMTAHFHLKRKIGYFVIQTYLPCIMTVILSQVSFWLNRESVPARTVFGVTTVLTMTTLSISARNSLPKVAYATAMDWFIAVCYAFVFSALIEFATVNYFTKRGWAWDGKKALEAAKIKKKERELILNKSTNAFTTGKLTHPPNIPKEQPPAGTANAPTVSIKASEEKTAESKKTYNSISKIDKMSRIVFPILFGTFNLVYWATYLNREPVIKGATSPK
T1 sequence (P63080 26-473 partner): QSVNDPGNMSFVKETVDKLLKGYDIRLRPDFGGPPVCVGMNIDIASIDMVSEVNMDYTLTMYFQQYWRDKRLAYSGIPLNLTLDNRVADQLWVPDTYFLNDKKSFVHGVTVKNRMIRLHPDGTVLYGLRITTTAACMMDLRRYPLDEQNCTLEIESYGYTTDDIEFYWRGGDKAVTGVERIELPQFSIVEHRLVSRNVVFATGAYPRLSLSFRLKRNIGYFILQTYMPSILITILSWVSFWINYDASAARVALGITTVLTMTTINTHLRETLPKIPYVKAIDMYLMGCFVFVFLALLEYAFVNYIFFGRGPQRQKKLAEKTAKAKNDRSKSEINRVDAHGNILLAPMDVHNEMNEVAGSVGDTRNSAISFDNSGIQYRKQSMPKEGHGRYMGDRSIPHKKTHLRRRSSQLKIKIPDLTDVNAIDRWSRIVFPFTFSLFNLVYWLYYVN
T1 sequence (P22723 39-474): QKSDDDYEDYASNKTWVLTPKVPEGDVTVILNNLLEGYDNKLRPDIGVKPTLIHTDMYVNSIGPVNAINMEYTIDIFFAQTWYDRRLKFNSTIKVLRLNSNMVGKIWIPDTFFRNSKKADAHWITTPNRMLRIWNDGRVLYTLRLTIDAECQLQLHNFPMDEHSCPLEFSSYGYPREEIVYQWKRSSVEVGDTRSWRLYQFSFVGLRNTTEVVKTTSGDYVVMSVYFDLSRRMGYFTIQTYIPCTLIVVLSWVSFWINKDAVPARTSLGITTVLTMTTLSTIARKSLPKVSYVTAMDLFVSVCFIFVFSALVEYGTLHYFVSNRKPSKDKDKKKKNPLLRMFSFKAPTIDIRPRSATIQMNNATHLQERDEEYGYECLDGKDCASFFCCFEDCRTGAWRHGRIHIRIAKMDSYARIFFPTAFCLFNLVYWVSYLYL

## Cc1cc(-c2nncc3c(C(C)(C)C)c(OCc4ncnn4C)nn23)no1 [MRK-016, 3-(1,1-Dimethylethyl)-7-(5-methyl-3-isoxazolyl)-2-[(1-methyl-1H-1,2,4-triazol-5-yl)methoxy]-pyrazolo[1,5-d][1,2,4]triazine]
α5GABAARs [1]
  contextual fear memory, WT mice (in words): restored freezing scores for contextual fear memory to control values
  cued fear memory to a conditioned tone stimulus (in words): did not affect freezing to a conditioned tone stimulus
α5GABAARs [1]; listed as MRK-016A
  contextual fear memory, WT mice (in words): reverses memory deficits associated with inflammation
[2]
  EC50: 3 nM
α5GABAARs [3]
  effect on the tonic current (in words): inhibited the tonic current; also recorded: blocks the tonic inhibitory current in hippocampal neurons from mice

B1: IL-1β: pro-inflammatory cytokine interleukin-1β; recombinant mouse IL-1β; IL-13 and IL-β in b369 are misprints (protein, UniProt P10749 118-269, looked up)
Interleukin-1 beta: VPIRQLHYRLRDEQQKSLVLSDPYELKALHLNGQNINQQVIFSMSFVQGEPSNDKIPVALGLKGKNLYLSCVMKDGTPTLQLESVDPKQYPKKKMEKRFVFNKIEVKSKVEFESAEFPNWYISTSQAEHKPVFLGNNSGQDIIDFTMESVSS
α1 subunit of GABAARs
  surface expression of α1 subunits (in words): caused no increase in the surface expression of α1 subunits
α5 subunit of GABAARs; IL-1β 20 ng ml−1, 40 min, n=3
  α5 subunits expressed on the surface of the neurons: 183.3%±29.6%
α5 subunit of GABAARs; IL-1β 20 ng/ml for 20 or 40 min, preliminary study
  surface expression of α5GABAARs (in words): dramatically increases the surface expression of α5GABAARs
α5GABAARs [4]
  tonic current: 44.9±9.4 pA
α5GABAARs [1]; IL-1β 1 μg kg^−1 i.p. or LPS 125 μg kg^−1 i.p.
  contextual fear memory, Gabra5−/− mice (in words): exhibited no such deficits
α5GABAARs [1]
  contextual fear memory, WT mice (in words): showed impairment of contextual fear memory
  cued fear memory to a conditioned tone stimulus (in words): cued fear memory to a conditioned tone stimulus was not affected by IL-1β
Synaptic GABAARs
  reduction of the amplitude of the mIPSCs: 17.3%±3.1%
  reduction of the charge transfer of the mIPSCs: 22.2%±7.0%
Synaptic GABAARs; IL-1ra 250 ng ml^−1, mean ± S.E.M., n = 6
  mIPSC Amplitude: 24.7 ± 2.1 pA
Synaptic GABAARs; IL-1ra 250 ng ml^−1, n = 6
  mIPSC Area: 279.0 pA · ms
  mIPSC Decay time: 14.8 ± 1.1 ms
  mIPSC Frequency: 3.7 ± 2.3 Hz
  mIPSC Rise time: 2.4 ± 0.1 ms
Postsynaptic GABAARs
  inhibition of the GABA-evoked peak current: 27.8%±2.2%
  inhibition of the GABA-evoked steady-state current: 12.7%±1.5%
α5GABAARs [3]; 20 ng ml^−1 for 20 min
  increase of the amplitude of the tonic current: 45%
α5GABAARs [3]; IL-1β 20 ng ml^−1 20 min with or without SB203,580 20 μM 30 min
  tonic current density: 1.4±0.1 pA pF^−1
α5GABAARs [3]; IL-1β 20 ng ml^−1 for 20 min, n=22
  variance of the noise (root mean square deviation): 9.8±0.7 pA
α5GABAARs [3]; IL-1β 20 ng ml^−1 for 20 min, revealed by bicuculline 100 μM, n=22
  tonic current density: 1.6±0.1 pA pF^−1
α5GABAARs [3]; IL-1β 60 ng ml^−1 for 3 h, n=6
  tonic current density: 2.0±0.3 pA pF^−1
α5GABAARs [3]; IL-1β for 12-15 h, n=21
  tonic current density: 1.3±0.6 pA pF^−1
α5GABAARs [3]
  effect on the tonic current (in words): increased the amplitude of the tonic current; also recorded: increased the tonic current recorded in wild-type (WT) neurons but not in neurons isolated from Gabra5−/− mice
